Source: patent US11702475B2, “Cysteine engineered fibronectin type III domain binding molecules” (Janssen Biotech, Inc., priority 2013, dated 2023)

How the values were obtained:
[1] = Differential scanning calorimetry in PBS of FN3 domains; assay type: physicochemical; conditions: DSC in PBS; for Tm: EGFR-binding FN3 domains and stabilised mutants
Source text: A subset of the EGFR binding FN3 domains was engineered to increase the conformational stability of each molecule. The mutations L17A, N46V, and E86I (described in US Pat. Publ. No. 2011/0274623) were incorporated into clones P54AR4-83, P54CR4-31, and P54AR4-37 by DNA synthesis. […] Differential scanning calorimetry in PBS was used to assess the stability of each mutant in order to compare it to that of the corresponding parent molecule.
Thermal Stability of c-Met-Binding FN3 Domains Differential scanning calorimetry in PBS was used to assess the stability of each FN3 domain.

[2] = Thermal stability of cysteine-NEM conjugates by DSC; assay type: physicochemical; conditions: for First Scan Tm: DSC 25-100 °C, 1 °C per minute; for Second Scan Tm: second identical scan
Method: The thermal stability of cysteine-NEM conjugates was assessed by differential scanning calorimetry (DSC). The only the conjugates tested were those determined to express at high levels, conjugate efficiently, and retain EGFR binding. Additionally, cysteine variants within the BC and FG loops were excluded. Stability data was generated by heating a 400 μL aliquot of the variant from 25° C. to 100° C. at a scan rate of 1° C. per minute in a VP-DSC instrument (MicroCal). A second identical scan was completed on the sample in order to assess the reversibility of thermal folding/unfolding. Data was fitted to a 2-state unfolding model in order to calculate the melting temperature (Table 10).

[3] = Analytical size exclusion chromatography (percent monomer); assay type: physicochemical; conditions: NEM-conjugated cysteine variants; SEC, Abs280 monomer region 5.5-6 minutes vs oligomer region 4-5.3 minutes
Procedure, shortened: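 Purified FN3 domains were run on a Superdex 75 5/150 column in PBS pH 7.4 at 0.3 mL/min with A280 detection. Percent monomer came from integrating the monomer peak (5.5–6 min) against oligomer peaks (4–5.3 min).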

[4] = system: EGFR-overexpressing human tumor cell line H1573; test: Cytotoxicity assay in H1573 cells; assay type: cell-based; conditions: cysteine variants conjugated to VC-MMAF, Cell TiterGlo at 70 hours, read-out: IC50
Method: Cell killing was assessed by measuring viability of the EGFR-overexpressing human tumor cell line H1573 following exposure to the cysteine variant-cytotoxin conjugates. Cells were plated in black-well, clear bottomed, tissue culture-treated plates (Falcon 353219) at 7000/well in 100 μL/well of phenol red free RPMI media (Gibco 11835-030) with 5% fetal bovine serum (Gibco). Cells were allowed to attach overnight at 37° C. in a humidified 5% CO2 atmosphere. Medium was aspirated from 96-well plate and cells were treated with 50 uL of fresh media and 50 uL of 2× inhibitor made up in fresh media. Cell viability was determined by an endpoint assay with Cell TiterGlo (Promega) at 70 hours. IC50 values were determined by fitting data to the equation for a sigmoidal dose response with variable slope using GraphPad Prism 5 (GraphPad Software). Table 11 reports IC50 values obtained from analysis of the CellTiter Glo data.
Conjugates consisting of ECB147 cysteine variants, 83v2-cys, or Tencon-cys linked to a cytotoxic tubulin inhibitor from the auristatin family (FIG. 2) were tested for target-dependent cytotoxicity in cancer cells. The inhibitor was linked to the cysteine-containing protein via a non-cleavable PEG4 linker or an enzyme-cleavable valine-citrulline or valine-lysine linker. Cell killing was assessed by measuring viability of the EGFR-overexpressing human tumor cell lines H1573 and A431 as well as the EGFR-negative tumor cell line MDA-MB-435 following exposure to the protein-cytotoxin conjugates using the procedure described in Example 4.

Molecule | Thermal Stability (Tm) ([1]; c-Met-binding FN3 domains) | Tm [1] | First Scan Tm [2] | Second Scan Tm [2] | Percent monomer [3] | IC50 [4]
P114AR7P92-G8: c-Met-binding FN3 domain, SEQ ID NO: 36 (protein, c-Met binding FN3 domain) LPAPKNLVVSRVTEDSARLSWTAPDAAFDSFVIRYFEFLGSGEAIVLTVPGSERSYDLTGLKPGTEYVVQILGVKGGYISIPLSAIFTT | 90.9 C. | – | – | – | – | –
P54AR4-83: EGFR-binding FN3 domain, SEQ ID NO: 25 (protein, EGFR binding FN3 domain) LPAPKNLVVSEVTEDSLRLSWDDPWAFYESFLIQYQESEKVGEAINLTVPGSERSYDLTGLKPGTEYTVSIYGVHNVYKDTNMRGLPLSAEFTT | – | 50.6 °C | – | – | – | –
P54AR4-37: EGFR-binding FN3 domain, printed SEQ ID NO: 22 (that of P54AR4-73) (protein, left off: small tags and cut ends) LPAPKNLVVSEVTEDSLRLSWTWPYADLDSFLIQYQESEKVGEAINLTVPGSERSYDLTGLKPGTEYTVSIYGVHNVYKDTNMRGLPLSAEFTT | – | 45.9 °C | – | – | – | –
Y72C: cysteine variant of P54AR4-83v2; NEM and VC-MMAF conjugates (conjugate, left off: small tags and cut ends, cysteine variant of P54AR4-83v2; NEM and VC-MMAF conjugates) LPAPKNLVVSEVTEDSARLSWDDPWAFYESFLIQYQESEKVGEAIVLTVPGSERSYDLTGLKPGTEYTVSICGVHNVYKDTNMRGLPLSAIFTT | – | – | 70 °C | 69 °C | 100% | 1.85 nM
V74C: cysteine variant of P54AR4-83v2; NEM and VC-MMAF conjugates (conjugate, left off: small tags and cut ends, cysteine variant of P54AR4-83v2; NEM and VC-MMAF conjugates) LPAPKNLVVSEVTEDSARLSWDDPWAFYESFLIQYQESEKVGEAIVLTVPGSERSYDLTGLKPGTEYTVSIYGCHNVYKDTNMRGLPLSAIFTT | – | – | 68 °C | 67 °C | 100% | 3.13 nM
P54AR4-37v2: P54AR4-37 with mutations L17A, N46V, E86I; SEQ ID NO: 29 (protein, EGFR binding FN3 domain) LPAPKNLVVSEVTEDSLRLSWTWPYADLDSFLIQYQESEKVGEAINLTVPGSERSYDLTGLKPGTEYTVSIYGVHNVYKDTNMRGLPLSAEFTT | – | 64.2 °C | – | – | – | –
P54CR4-31: EGFR-binding FN3 domain, SEQ ID NO: 26 (protein, EGFR binding FN3 domain) LPAPKNLVVSEVTEDSLRLSWTAPDAAFDSFLIQYQESEKVGEAINLTVPGSERSYDLTGLKPGTEYTVSIYGVLGSYVFEHDVMLPLSAEFTT | – | 60.9 °C | – | – | – | –
P54CR4-31v2: P54CR4-31 with mutations L17A, N46V, E86I; SEQ ID NO: 28 (protein, EGFR binding FN3 domain) LPAPKNLVVSEVTEDSARLSWTAPDAAFDSFLIQYQESEKVGEAIVLTVPGSERSYDLTGLKPGTEYTVSIYGVLGSYVFEHDVMLPLSAIFTT | – | 78.9 °C | – | – | – | –
G60C: cysteine variant of P54AR4-83v2 (SEQ ID NOS: 207 and 245); NEM and VC-MMAF conjugates (conjugate, NEM or vcMMAF conjugate; EGFR binding FN3 domain, NEM and VC-MMAF conjugates) MLPAPKNLVVSEVTEDSARLSWDDPWAFYESFLIQYQESEKVGEAIVLTVPGSERSYDLTCLKPGTEYTVSIYGVHNVYKDTNMRGLPLSAIFTT | – | – | 66 °C | 66 °C | 100% | 1 nM
K62C: cysteine variant of P54AR4-83v2 (SEQ ID 208 and 246); NEM and VC-MMAF conjugates (conjugate, NEM or vcMMAF conjugate; EGFR binding FN3 domain, NEM and VC-MMAF conjugates) MLPAPKNLVVSEVTEDSARLSWDDPWAFYESFLIQYQESEKVGEAIVLTVPGSERSYDLTGLCPGTEYTVSIYGVHNVYKDTNMRGLPLSAIFTT | – | – | 65 °C | 65 °C | 95% | 1.25 nM
I91C: cysteine variant of P54AR4-83v2 (SEQ ID NOS: 215 and 253); NEM and VC-MMAF conjugates (conjugate, NEM or vcMMAF conjugate; EGFR binding FN3 domain, NEM and VC-MMAF conjugates) MLPAPKNLVVSEVTEDSARLSWDDPWAFYESFLIQYQESEKVGEAIVLTVPGSERSYDLTGLKPGTEYTVSIYGVHNVYKDTNMRGLPLSACFTT | – | – | 70 °C | 69 °C | 100% | 0.54 nM
A90C: cysteine variant of P54AR4-83v2 (SEQ ID NOS: 214 and 252); NEM and VC-MMAF conjugates (conjugate, NEM or vcMMAF conjugate; EGFR binding FN3 domain, NEM and VC-MMAF conjugates) MLPAPKNLVVSEVTEDSARLSWDDPWAFYESFLIQYQESEKVGEAIVLTVPGSERSYDLTGLKPGTEYTVSIYGVHNVYKDTNMRGLPLSCIFTT | – | – | 67 °C | 67 °C | 100% | 1 nM
G64C: cysteine variant of P54AR4-83v2 (SEQ ID NOS: 209 and 247); NEM and VC-MMAF conjugates (conjugate, NEM or vcMMAF conjugate; EGFR binding FN3 domain, NEM and VC-MMAF conjugates) MLPAPKNLVVSEVTEDSARLSWDDPWAFYESFLIQYQESEKVGEAIVLTVPGSERSYDLTGLKPCTEYTVSIYGVHNVYKDTNMRGLPLSAIFTT | – | – | 70 °C | 70 °C | 100% | 0.36 nM
S89C: cysteine variant of P54AR4-83v2 (SEQ ID NOS: 213 and 251); NEM and VC-MMAF conjugates (conjugate, NEM or vcMMAF conjugate; EGFR binding FN3 domain, NEM and VC-MMAF conjugates) MLPAPKNLVVSEVTEDSARLSWDDPWAFYESFLIQYQESEKVGEAIVLTVPGSERSYDLTGLKPGTEYTVSIYGVHNVYKDTNMRGLPLCAIFTT | – | – | 72 °C | 71 °C | 96% | 0.94 nM
S70C: cysteine variant of P54AR4-83v2 (SEQ ID NOS: 211 and 249); NEM and VC-MMAF conjugates (conjugate, NEM or vcMMAF conjugate; EGFR binding FN3 domain, NEM and VC-MMAF conjugates) MLPAPKNLVVSEVTEDSARLSWDDPWAFYESFLIQYQESEKVGEAIVLTVPGSERSYDLTGLKPGTEYTVCIYGVHNVYKDTNMRGLPLSAIFTT | – | – | 73 °C | 72 °C | 100% | 1.14 nM
L88C: cysteine variant of P54AR4-83v2 (SEQ ID NOS: 212 and 250); NEM and VC-MMAF conjugates (conjugate, NEM or vcMMAF conjugate; EGFR binding FN3 domain, NEM and VC-MMAF conjugates) MLPAPKNLVVSEVTEDSARLSWDDPWAFYESFLIQYQESEKVGEAIVLTVPGSERSYDLTGLKPGTEYTVSIYGVHNVYKDTNMRGLPCSAIFTT | – | – | 70 °C | 70 °C | 98% | 0.81 nM
